According to publication PMC7177926, “Spliceosomal Protein Gene BmSPX Regulates Reproductive Organ Development in Bombyx mori”:

Target: MBP-BmPSI (P-element somatic inhibitor) (Bombyx mori, UniProt A8R081 1-703)
Test: EMSA; RNA dissolved in protein purification buffer, 20 mM Tris, 20 mM NaCl; pH, temperature and EMSA binding details not given
Conditions: protein: recombinant; tags: N-terminal His6-MBP-TEV; label: biotin at 5' and 3' ends; single strand

Chain of MBP-BmPSI (P-element somatic inhibitor) (A8R081 entry or part of it): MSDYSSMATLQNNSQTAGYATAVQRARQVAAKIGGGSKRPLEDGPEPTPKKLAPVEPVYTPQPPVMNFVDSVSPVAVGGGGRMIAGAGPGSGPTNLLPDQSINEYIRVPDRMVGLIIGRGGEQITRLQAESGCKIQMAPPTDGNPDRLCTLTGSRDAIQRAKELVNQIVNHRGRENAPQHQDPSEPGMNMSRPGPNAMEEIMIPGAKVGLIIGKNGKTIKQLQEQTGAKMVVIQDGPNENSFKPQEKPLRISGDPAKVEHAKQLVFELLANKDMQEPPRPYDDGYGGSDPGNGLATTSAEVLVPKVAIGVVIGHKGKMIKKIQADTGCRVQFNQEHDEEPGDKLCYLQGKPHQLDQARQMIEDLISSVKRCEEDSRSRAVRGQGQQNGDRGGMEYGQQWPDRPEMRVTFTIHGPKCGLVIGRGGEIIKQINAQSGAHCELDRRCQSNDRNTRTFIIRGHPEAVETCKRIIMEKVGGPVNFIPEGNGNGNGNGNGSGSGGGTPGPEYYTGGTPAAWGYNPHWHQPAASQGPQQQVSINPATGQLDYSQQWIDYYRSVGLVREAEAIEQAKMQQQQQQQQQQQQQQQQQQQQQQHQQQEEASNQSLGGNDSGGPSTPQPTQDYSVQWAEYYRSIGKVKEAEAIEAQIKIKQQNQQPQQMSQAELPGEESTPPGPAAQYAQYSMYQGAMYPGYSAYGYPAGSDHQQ

**Q.** Does UUAAUAAUAUAAGUGGUGUA (ssRNA) [CE1 RNA probe] bind?
**A.** binds
